Results as given in US20210101970A1 (Pfizer, published 2021).

T1: human CXCR5 (human, UniProt P32302 1-372)
T1 construct: also called hCXCR5; C-X-C chemokine receptor type 5
T1 sequence: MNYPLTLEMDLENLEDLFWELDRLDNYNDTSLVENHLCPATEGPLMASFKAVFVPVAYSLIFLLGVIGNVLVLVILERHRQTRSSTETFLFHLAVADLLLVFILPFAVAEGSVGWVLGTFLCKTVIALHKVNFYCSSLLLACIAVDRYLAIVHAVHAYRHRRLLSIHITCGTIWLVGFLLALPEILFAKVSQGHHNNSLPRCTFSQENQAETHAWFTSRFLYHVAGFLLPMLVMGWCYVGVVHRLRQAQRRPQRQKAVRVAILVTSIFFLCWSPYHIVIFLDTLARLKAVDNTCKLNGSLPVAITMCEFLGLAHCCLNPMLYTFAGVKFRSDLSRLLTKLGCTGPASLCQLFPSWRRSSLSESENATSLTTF

T2: cynomolgus monkey CXCR5 (cynomolgus monkey, UniProt P32302 1-372 (human entry))
T2 chain: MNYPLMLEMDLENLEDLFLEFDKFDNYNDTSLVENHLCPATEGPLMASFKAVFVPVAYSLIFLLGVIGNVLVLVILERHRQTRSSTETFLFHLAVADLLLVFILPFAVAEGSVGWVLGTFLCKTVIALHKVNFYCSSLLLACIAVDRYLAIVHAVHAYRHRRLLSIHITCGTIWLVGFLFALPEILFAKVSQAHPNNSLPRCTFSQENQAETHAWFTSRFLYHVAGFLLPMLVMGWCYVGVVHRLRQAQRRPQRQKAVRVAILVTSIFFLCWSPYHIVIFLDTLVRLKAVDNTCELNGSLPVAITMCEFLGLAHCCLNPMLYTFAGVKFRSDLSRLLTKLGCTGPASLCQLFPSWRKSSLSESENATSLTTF


Columns and labels:
[1] = target: T1, human CXCR5; experiment: flow cytometry, human tonsil Tfh cells
Description: Following centrifugation, red blood cell lysis was performed on the pellet using an ammonium chloride lysis buffer. Platelets were removed using a low speed centrifugation (200×g) for 10 minutes in Phosphate-Buffered Saline (PBS)/2% FBS/2 mM Ethylenediaminetetraacetic acid (EDTA). CD4+ T cells were purified out of the TMC mixture using an EasySep™ Human CD4+ T Cell Enrichment Kit, according to the manufacturer's instructions ([…] Technologies, Vancouver, BC, Canada).
(§1) Following isolation, PBMCs were plated at a density of 1.0×10⁵ cells per well and CD4+ TMCs were plated at a density of 2.0×10⁵ cells per well in isolation buffer (PBS containing 1% FBS and 1 mM EDTA) in 96 well U-bottom plates. The plates were then centrifuged at 1500 rpm for 5 minutes at room temperature. PBMCs and CD4+ TMCs were resuspended in Fluorescence-activated cell sorting (FACS) buffer (PBS containing 1% FBS) containing human crystallized fragment Fc block (2 μL per well; Biolegend) and 4-fold serial dilutions of the antibodies (11-point dilution series, beginning at 5000 ng/mL for PBMCs and 312.5 ng/mL for CD4+ TMCs) and incubated on ice for 2 hours. PBMCs and CD4+ TMCs were then washed with FACS buffer 3 times and resuspended in 50-100 μL of FACs buffer containing fluorescent-conjugated antibodies for staining lymphocyte subsets and a fluorescent-conjugated secondary antibody against human Ig to detect CXCR5 monoclonal antibodies (mAbs). After incubation for 30 minutes at 4° C., PBMCs and CD4+ TMCs were washed with FACS buffer 2 times and resuspended in 125 μL of 0.5% paraformaldehyde (PFA) in PBS. Plates were stored at 4° C. until analysis by flow cytometry (BD LSRFortessa™ Cell Analyzer, BD Biosciences, Franklin Lakes, N.J.).
(§2) The cell binding titration curves were generated by plotting the gMFI of the antigen binding population against the log of CXCR5 antibody concentration. EC₅₀ values were determined using GraphPad Prism® (version 6.0, GraphPad Software, Inc, San Diego, Calif.) nonlinear-regression curve fits and a sigmoidal log of agonist dose-response model, according to the following equation

[2] = target: T1, human CXCR5; experiment: cell-based or functional assay
[3] = target: T2, cynomolgus monkey CXCR5; experiment: cell-based or functional assay
[4] = target: T2, cynomolgus monkey CXCR5; experiment: flow cytometry, cynomolgus PBMC B cells
Description: (§3) The apparent affinity for cell surface CXCR5 of chimeric and humanized CXCR5 fucosylated and afucosylated antibodies was assessed. More specifically, to determine the apparent affinity of chimeric and humanized CXCR5 antibodies to CXCR5-expressing cells, cell binding experiments were performed on human and cynomolgus monkey peripheral blood mononuclear cells (PBMCs) and human tonsillar mononuclear cells (TMCs). The apparent affinity of CXCR5 mab binding to CXCR5+ cells (B cells, bona fide Tfh cells, and circulating Tfh-like cells) was calculated as the EC50 of equilibrium binding titration curves in which the geometric mean fluorescence intensity (gMFI) of the antigen binding population was quantified by flow cytometry.
as §1, §2

[5] = target: T1, human CXCR5; experiment: flow cytometry, human PBMC B cells
Description: as §3, §1, §2

[6] = target: T1, human CXCR5; experiment: cell-based or functional assay; remark: listed apart in the source
[7] = target: T1, human CXCR5; experiment: flow cytometry on Raji cells, gMFI titration
Description: The apparent affinity of antibody binding to Raji cells was calculated as the EC₅₀ of equilibrium binding titration curves in which the geometric mean fluorescence intensity (gMFI) of the antigen binding population was quantified by flow cytometry and the results are shown in Table 2.

Row | Binder | EC50 [1] | ADCC Activity Average EC50, Human B Cells [2] | ADCC Activity Average EC50, NHP B Cells [3] | EC50 [4] | EC50 [5] | Ca2+ flux IC50 [6] | EC50 [7] | ADCC Activity Average EC50, Human Tfh Cells [2]
1 | Humanized 11G2 153/156 (antibody, human IgG1, V domains shown, also called h11G2 VH (XC156)/VL (XC153)) VH: EVQLVESGGGLVQPGGSLRLSCATSGFTFTDFYMSWVRQAPGKGLEWVGFIRNKANGYTTEYSASVKGRFTISRDNAKNSLYLQMNSLRAEDTAVYYCVRVYGSTLHYWGQGTLVTVSS VL: DIQMTQSPSSLSASVGDRVTITCRASESVEYHGTSLMHWYQQKPGKAPKLLIYAASNVESGVPSRFSGSGSGTDFTLTISSLQPEDFATYFCQQSRKVPWTFGQGTKVEIK | 3.23 pM | 568 pM | 28.1 pM | 7.06 pM | 0.00888 nM | – | – | –
2 | Humanized 11G2 154/157 (antibody, human IgG1, V domains shown, also called h11G2 VH (XC157)/VL (XC154)) VH: EVQLVESGGGLVQPGGSLRLSCATSGFTFTDFYMSWVRQAPGKGLEWVGFIRNKANGYTTEYSASVKGRFTISRDNAKSSLYLQMNSLRAEDTAVYYCVRVYGSTLHYWGQGTLVTVSS VL: DIQMTQSPSSLSASVGDRVTITCRASESVEYHGTSLMHWYQQKPGKAPKLLIYAASNVESGVPSRFSGSGSGTDFTLTISSLQPEDFATYYCQQSRKVPWTFGQGTKVEIK | 7.24 pM | 517 pM | 54 pM | 8.65 pM | 0.0191 nM | – | – | –
3 | Humanized 41A10 142/147 (antibody, human IgG1, V domains shown, also called h41A10 VH (XC147)/VL (XC142)) VH: EVQLVESGGGLVQPGGSLRLSCAASGFTFRSYGMSWVRQAPGKGLEWVATISSGGTYTFYPDILKGRITISRDNAKNSLYLQMNSLRAEDTAVYYCARRGEDYRGALEHWGQGTLVTVSS VL: DIQMTQSPSSLSASVGDRVTITCSASSSVNYIHWYQQKPGKAPKRLIYETSRLASGVPSRFSGSGSGTDYTLTISSLQPEDFATYYCQQWSSNPLTFGQGTKVEIK | – | 1240 pM | – | 2050 pM | 0.153 nM | – | – | –
4 | mouse 11G2 (antibody, V domains shown, mouse hybridoma mAb; also called 11G2 (hybridoma)) VH: EVKLVESGGGLVQPGGSLRLSCATSGFTFTDFYMSWVRQPPGRALEWLGFIRNKANGYTTEYSASVKGRFTISRDNSQSILYLQMNTLRAGDSATYYCVRVYGSTLHYWGQGTILTVSS VL: DVVVTQSPDSLAVSLGQRATISCRASESVEYHGTSLMHWYQQKPGQPPKLLIYAASNVESGVPARFSGSGSGTDFSLNIHPVEEGDIAMYFCQQSRKVPWTFGGGTKLEIK | – | – | – | – | – | 5.93 nM | 0.968 nM | –
5 | mouse 41A10 (antibody, V domains shown, mouse hybridoma mAb; also called 41A10 (hybridoma)) VH: EVQLVESGGDLVKPGGSLKLSCAASGFTFRSYGMSWVRQTPDKRLEWVATISSGGTYTFYPDILKGRITISRDNAKNTLYLQMSNLKSEDTAMYYCARRGEDYRGALEHWGQGTSVTVSS VL: QIVLTQSPAVMSASPGEKVTMTCSASSSVNYIHWYQQKSGTSPKRWIYETSRLASGVPVRFSGSGSGTSYSLTISTMEAEDAATYYCQQWSSNPLTFGAGTKLELK | – | – | – | – | – | 14.7 nM | 0.805 nM | –

Next, values leading:

Row | EC50 [1] | ADCC Activity Average EC50, Human B Cells [2] | ADCC Activity Average EC50, NHP B Cells [3] | EC50 [4] | EC50 [5] | Ca2+ flux IC50 [6] | EC50 [7] | ADCC Activity Average EC50, Human Tfh Cells [2] | Binder
6 | 3.33 pM | 377 pM | 43.6 pM | 10.1 pM | 0.0131 nM | – | – | – | Humanized 11G2 151/152 (antibody, human IgG1, V domains shown, also called h11G2 VH (XC152)/VL (XC151)) VH: EVQLVESGGGLVKPGGSLRLSCAASGFTFTDFYMSWVRQAPGKGLEWLGFIRNKANGYTTEYSAPVKGRFTISRDDSKNTLYLQMNSLKTEDTAVYYCVRVYGSTLHYWGQGTLVTVSS VL: DIQMTQSPSSLSASVGDRVTITCRASESVEYHGTSLMHWYQQKPGKAPKLLIYAASNVESGVPSRFSGSGSGTDFTLTISSLQPEDFATYYCQQSRKVPWTFGQGTKVEIK
7 | 4.82 pM | 463 pM | 20.7 pM | 7.03 pM | 0.00779 nM | – | – | – | Humanized 11G2 153/155 (antibody, human IgG1, V domains shown, also called h11G2 VH (XC155)/VL (XC153)) VH: EVQLVESGGGLVQPGGSLRLSCAASGFTFTDFYMSWVRQAPGKGLEWVGFIRNKANGYTTEYSASVKGRFTISRDNAKNSLYLQMNSLRAEDTAVYYCARVYGSTLHYWGQGTLVTVSS VL: DIQMTQSPSSLSASVGDRVTITCRASESVEYHGTSLMHWYQQKPGKAPKLLIYAASNVESGVPSRFSGSGSGTDFTLTISSLQPEDFATYFCQQSRKVPWTFGQGTKVEIK
8 | – | 1110 pM | – | 1960 pM | 0.152 nM | – | – | – | Humanized 41A10 142/148 (antibody, human IgG1, V domains shown, also called h41A10 VH (XC148)/VL (XC142)) VH: EVQLVESGGGLVQPGGSLRLSCAASGFTFRSYGMSWVRQAPGKGLEWVATISSGGTYTFYPDILKGRFTISRDNAKNSLYLQMNSLRAEDTAVYYCARRGEDYRGALEHWGQGTLVTVSS VL: DIQMTQSPSSLSASVGDRVTITCSASSSVNYIHWYQQKPGKAPKRLIYETSRLASGVPSRFSGSGSGTDYTLTISSLQPEDFATYYCQQWSSNPLTFGQGTKVEIK
9 | 45.6 pM | 4.39 pM | – | – | 0.00809 nM | – | – | 0.07 pM | Afucosyl Chimeric 11G2 (antibody, human IgG1, kappa, V domains shown, afucosylated Fc glycan (Asn297), made in Potelligent CHOK1SV cells) VH: EVKLVESGGGLVQPGGSLRLSCATSGFTFTDFYMSWVRQPPGRALEWLGFIRNKANGYTTEYSASVKGRFTISRDNSQSILYLQMNTLRAGDSATYYCVRVYGSTLHYWGQGTILTVSS VL: DVVVTQSPDSLAVSLGQRATISCRASESVEYHGTSLMHWYQQKPGQPPKLLIYAASNVESGVPARFSGSGSGTDFSLNIHPVEEGDIAMYFCQQSRKVPWTFGGGTKLEIKR
10 | – | – | – | – | – | 5.55 nM | 1.01 nM | – | mouse 5H7 (antibody, V domains shown, mouse hybridoma mAb; also called 5H7 (hybridoma)) VH: EVKLVESGGGLVQPGDSLRLSCATSGFTFTDFYMSWVRQPPGRALEWLGFIRNKANGYTTEYSASVKGRFTISRDNSQSILYLQMNTLRAGDSATYYCVRVYGSTLHYWGQGTILTVSS VL: DVVVTQSPDSLAVSLGQRATISCRASESVEYHGTSLMHWYQQKPGQPPKLLIYAASNVESGVPARFSGSGSGTDFSLNIHPVEEGDVSMFFCQQSRKVPWTFGGGTKLEIK
11 | – | 54.5 pM | – | – | – | – | – | – | Afucosyl Chimeric 41A10 (antibody, human IgG1, kappa, V domains shown, afucosylated Fc glycan (Asn297)) VH: EVQLVESGGDLVKPGGSLKLSCAASGFTFRSYGMSWVRQTPDKRLEWVATISSGGTYTFYPDILKGRITISRDNAKNTLYLQMSNLKSEDTAMYYCARRGEDYRGALEHWGQGTSVTVSS VL: QIVLTQSPAVMSASPGEKVTMTCSASSSVNYIHWYQQKSGTSPKRWIYETSRLASGVPVRFSGSGSGTSYSLTISTMEAEDAATYYCQQWSSNPLTFGAGTKLELKR
